Assay results reported in publication PMC4174439 (RNA, 2014).

Molecular target: the molecule itself
Test: SDS-PAGE

B1: Cd-HfqHis6 (Clostridium difficile Hfq bearing a C-terminal His-tag) (natural protein, Clostridium difficile strain 630, UniProt Q187T2 1-86, looked up)
chain: MKNTVLNLQDLFLNNARKERIPVTIYLVNGVQVKGLVKGFDSYIILIEGDNRQQNMIYKHAVSTIQPGKYINLTNQNQNNNNNNNR
In the case of B1, the “stoichiometry N” value is reported as 6.
